B1: ADI-15593 (antibody, V domains shown)
VH: QVQLVQSGGGLVRPGGSLRLSCAASGFMFSTYSMNWLRTVPGKGLEWVSSISGSSSHIYYADSVKGRFTISRDNTKNSLYLQMNSLRPEDTALYYCARYFGDYSGLGNYYYYGMDVWGQGTTVTVSS
VL: DIVMTQSPVSLPVTPGEPASISCRSSQSLLHSNGNNYLDWYLQRPGQSPQLLIYLGSNRASGVPDRFSGSGSGTDFTLRISRVEAEDVGVYYCMQALQTPRFGGGTKVEIK
notes: IgG; also called Antibody Number 160
B2: ADI-15006 (antibody, V domains shown)
VH: EVQLVESGPGLVKPSGTLSLTCTVSGDSMSDYYWSWIRQSPGRGLEWLGYIYYDGSTNYNPSLKGRGTISIDTSKSQFSLTLSSVKAADTAVYYCARGKYYDRGGYYLFYLDYWGQGILVTVSS
VL: DIRLTQSPSSLSASVGDRVTITCRASQTIASYVNWYQQKPGKAPKLLIYAASSLQDGVPSRFSGSGSGTDFALTISSLQPEDFAIYFCQQSYSTPIFTFGPGTKVEIK
notes: IgG; also called Antibody Number 125
B3: ADI-15577 (antibody, V domains shown)
VH: QVQLVQSGAEVKKPGSSVKVSCKASGGTFGSYAISWVRQAPGQGLEWMGGTIPIFGTADHAQKFQGRVTITADKSTSTAYMELSSLRSEDTAVYYCARGVFRVGCSDTSCLKNYYGTDVWGQGTTVTVSS
VL: QSVLIQPASVSGSPGQSITVSCTGSSGDVGAYKYVSWYQQHPGRGPKLIIYDVSARPSGISDRFSGSKSGNTASLTISGLQAEDEADYYCSSYSSSSTLVVFGGGTKVTVL
notes: IgG
B4: ADI-15658 (antibody, V domains shown)
VH: EVQLVESGGGLVQPGRSLRLSCVTSGFGFDDYAMHWVRQAPGKGLEWVSGIGWNSGGIGYADSVKGRFSISRDNAKNSLYLQMNSLRPEDTAFYYCVKDGTPIAVAGYFEYWGQGTLVTVSS
VL: SYELTQPPSASGTPGQRVTISCSGGRSNIGNNYVYWYQQLPGTAPKLLIYRHDQRPSGVPDRFSGSKSGTSASLAINGLRSEDEADYFCAVWDDSLSCYVFGAGTKLTVL
notes: IgG
B5: ADI-15667 (antibody, V domains shown)
VH: EVQLVESGGGLVQPGGSLRLSCAASGFTFSDFSMSWVRQAPGKGLEWVSLIKSSGYAYYADSVRGRFTISRDNSKNTLYLQMNSLRAEDTAIYYCAKDADFWSGAAYNGGYNFDSWGQGTLVTVSS
VL: DIQMTQSPATLSVFPGDRATLSCRASQSVGSNLAWYQQKPGQAPRLLIFGASTRATGIPARFSGSGSGTEFTLTISSLQSEDFAVYYCQQYHNWPPLTFGGGTKVDIK
notes: IgG
B6: ADI-15651 (antibody, V domains shown)
VH: EVQLVESGPALVKPTQTLTLTCTVSGGVERMSVSWVRQPPGKALEWLARIDWDDDKYYNTFLKTRLTISKGTSKNEVVLTMTNMDPEDTAIYYCARTNRYDKSGYYLYYLDYWGQGTLVTVSS
VL: DIQMTQSPSSLSASVGDKVTITCRASQTIASYVNWYQQHPGKAPKLLIYLASRLQSGAPSRFSGSGSGTDFTLTILNLQPEDFATYYCQQSYSSFFTFGPGTKVEIK
notes: IgG
B7: ADI-15660 (antibody, V domains shown)
VH: EVQLVQSGTEVKKPGESLKISCKASGYSSFPNWIGWVRQMPGKGLEYMGSIFPDDSNTRYSPSFRGLVAISADKSLRTAYLQWSSLKASDSAIYYCARGPFPHYFDSWGQGTLVTVSS
VL: NFMLTQPHSVSESPGKTVTISCTRSSGSIARNYVQWYQQRPGSSPTTVIYEDDQRPPGVPDRFSGSIDSSSNSASLTISGLQTEDEADYYCQSYDPTNQNVFGTGTKLTVL
notes: IgG
B8: ADI-15645 (antibody, V domains shown)
VH: EVQLLESGGGLVQPGGSLRLSCAASGFTFSSYAMSWVRQIPGKGLEWVSTINISGGSTYYADSVKGRFTISRDNSRDTVFLQMNGLRAEDTALYYCARGYHIDWFDFWGQGTLVTVSS
VL: DIVLTQTPSSVSASVGDRVTITCRASQDIGSWLAWYQQKPGKAPQFLIYAASQLQSGVPSRFSGSGSGTDFTLTISSLQPEDFATYYCQQAKSLPRTFGGGTKVDIK
notes: IgG
B9: ADI-15659 (antibody, V domains shown)
VH: QVQLVQSGAEVKKPGSSVKVSCKASGGTFSTYGISWVRQAPGQGLEWMGRVIPMFGTATYAQKFQDRVTITADKATSTAYMELNSLRSDDTAVYYCARCPPFEGVRPPWFDPWGQGTLVTVSS
VL: SYELTQPPSVSVAPGRTAKITCGGYNIGNKRVHWYRQRPGQAPVLIVYDNADRPSGIPERFSGSNSGNTATLTISNVAAGDEADYHCQVWETSSDHPVFGGGTKLTVL
notes: IgG; also called Antibody Number 223
B10: ADI-15582 (antibody, V domains shown)
VH: QVQLVQSGGEVKKPGASVKVSCKASGYTFISYGITWVRQAPGQGPEWMGWISPYNGDTNYAQKLQGRVTMTTDTSTTTAYMELRSLRSDDTAIYYCARRYDILTGGGWFDSWGQGTLVTVSS
VL: DIVMTQSPSSLSASVGDRVTINCRASQSIISYLNWYQQKPGKAPELLIYAASSLQSGVPSRFSGSGSGTEFTLTISSLQPEDFATYYCQQSYSTPLSFGPGTKVEIK
notes: IgG
B11: ADI-15646 (antibody, V domains shown)
VH: EVQLLESGGGLIQPGGSLRLSCGASGFTVTGNYMHWVRQAPGKGLEWVSVIYAGSSTYYADSVRGRFTISRDKARNTLFLQMNRLRAEDTAVYYCARAGVVGEDRSGWYGPDYFHGLDVWGQGTTVTVSS
VL: ETTLTQSPGTLSLSPGERATLSCRASQSIRNNYLAWYQQKPGQPPRLLIYGESRRATGIPGRFSGSGSGTDFTLTISSLEPEDFAVYYCQQYGGSPYTFGQGTKVDIK
notes: IgG; also called Antibody Number 210
B12: ADI-15588 (antibody, V domains shown)
VH: EVQLVESGPGLVKPSETLSLICRVFGGSVRRGDYNWNWIRQPPGKGLEWIGYIDYSGTTKYNPSLKSRVTISEDTSRNQFSLELRSVTAADTAMYYCARDVGSTPYNYYGMDVWGQGTTVTVSS
VL: EIVLTQSPGTLSLSPGERATLSCRASQTIKNNYLAWYQQKPGQAPRLLMYGVSSRPTGIPDRFSGSGSGTDFSLTIDRLEPEDFAVYYCQQFGRSPELTFGGGTKVEIK
notes: IgG; also called Antibody Number 155

Tests used:
[1] = molecular target: T1, postfusion RSV F ectodomain, subtype B (respiratory syncytial virus subtype B); assay: BLI, IgG on sensor
T1 construct: extracellular domain; also called Postfusion subtype B
Protocol: (§1) IgG binding to DS-Cav1 and FA FP was determined by BLI measurements using a FortéBio Octet HTX instrument (Pall Life Sciences). […] Data was analyzed using the ForteBio Data Analysis Software 7. The data was fit to a 1:1 binding model to calculate an association and dissociation rate, and KD was calculated using the ratio kd/kₐ.

[2] = molecular target: T2, prefusion-stabilized RSV F ectodomain (DS-Cav1), subtype B (respiratory syncytial virus subtype B); assay: BLI, IgG on sensor
T2 construct: extracellular domain; also called Prefusion subtype B
Protocol: as §1

[3] = molecular target: T3, postfusion RSV F ectodomain (F ΔFP), subtype A (respiratory syncytial virus subtype A, UniProt P03420 26-109; P03420 147-524); assay: BLI, IgG on sensor
T3 construct: extracellular domain; also called Postfusion subtype A
Protocol: as §1

[4] = molecular target: RSV F protein of subtype B strain 18537, on virus (respiratory syncytial virus subtype B …, UniProt P13843 26-574); assay: cell-based or functional assay
[5] = molecular target: RSV F protein of subtype A strain A2, on virus (respiratory syncytial virus subtype A …, UniProt P03420 26-574); assay: cell-based or functional assay

Row | Binder | Kd [1] [nM] | Kd [2] [nM] | Kd [3] [nM] | Neut IC50 (ug/ml) subtype B [4] [µg/mL] | Neut IC50 (ug/ml) subtype A [5] [µg/mL]
1 | B1 | 0.761 | 3.95 | 0.507 | > 10 | > 10
2 | B2 | 3.61 | 4.2 | 0.243 | > 10 | 19.1
3 | B3 | 0.679 | 4.66 | 0.779 | > 10 | > 10
4 | B4 | 0.169 | 1.81 | 0.18 | > 10 | 6.25
5 | B5 | 0.208 | 0.333 | 0.231 | 0.048 | 0.039
6 | B6 | 0.453 | 2.08 | 0.23 | 3.29 | 1.6
7 | B7 | 0.105 | 0.89 | 0.098 | > 10 | 17.3
8 | B8 | 0.352 | 4.6 | 0.367 | > 10 | > 10
9 | B9 | 3.66 | 11.1 | 1.13 | > 10 | > 10
10 | B10 | 0.295 | 2.32 | 0.385 | 6.74 | 2.22
11 | B11 | 3.18 | 2.62 | 0.318 | > 10 | 0.846
12 | B12 | 0.953 | 0.427 | 0.353 | 0.234 | 0.094
